From patent US10000771B2, “Nuclear targeting sequences” (Yeda Research and Development Co. Ltd., priority 2007, dated 2018)

Experiments:
CHO cells = assay: Microscopy of SMAD3 and MH2 constructs (subcellular localization); assay type: cell-based; details: overexpressed in CHO cells, fluorescence microscopy
Excerpt: FIGS. 11A-11D are photomicrographs illustrating that mutation of SPS prevents the nuclear translocation of full length SMAD3. CHO cells overexpressing either Flag-SMAD3 (SMAD3) or its AAA mutant (AAA-SMAD3) were fixed and stained both with anti Flag Ab and DAPI.
FIGS. 12A-12F are photomicrographs illustrating that mutants of the SPS domain modulate the subcellular translocation of the MH2 region of SMAD3. CHO cells overexpressing MH2 domain of SMAD3 (WT-MH2), or the AAA (AAA-MH2) and DPD mutant (MH2-DPD) were fixed and visualized under florescent microscope.
Immunofluorescence Microscopy. Cells were fixed (30 min in 3% paraformaldehyde in PBS or 10 min with ice-cold methanol), followed by 5-min permeabilization with 0.2% Triton X-100 in PBS (23° C.). The fixed cells were sequentially incubated with the appropriate Abs (45 min) followed by rhodamine-conjugated secondary Abs (45 min) and DAPI. Slides were visualized using a fluorescence microscope (Nikon, Japan) at 400× magnifications.
Therefore, it seems likely that the SPS of SMAD3 operated similarly to that of ERK2. To examine whether this SPS of SMAD3 is involved in nuclear translocation WT-Flag-SMAD3 and a Flag-SMAD3 in which the SPS domain was replaced with three Ala residues (AAA-SMAD3) were overexpressed in CHO cells and their localization examined.

SPS domain = assay: SPS phosphorylation detected by anti pSPS Ab Western blot; assay type: cell-based; details: COS7 cells, stimulated with VOOH, TPA, EGF or TGFβ, immunoprecipitation and Western blot
Experimental: FIGS. 4A-4I are autoradiographs characterizing SPS phosphorylation using an Ab to the phosphorylated SPS domain. FIG. 4A illustrates an elevation of pSPS detection upon stimulation. COS cells were transfected with WT-GFP-ERK2. Twenty-four hr after transfection, the cells were serum-starved for 16 hr and subsequently treated with the general stimulator VOOH (V, 100 μM Na3VO4 and 200 μM H2O2, 15 min), TPA (T, 250 nM, 15 min), EGF (E, 50 ng/ml for 15 min), or left untreated (NT). The GFP-ERK2 was immunoprecipitated with anti GFP Ab, extensively washed, and the IP was then subjected to Western blotting with anti phospho SPS-ERK (αphoSPS-ERK) and anti general ERK (αgen-ERK) Abs. FIG. 4B is a time course of SPS phosphorylation. COS7 cells overexpressing WT-GFP-ERK2 were serum starved followed by EGF stimulation for the indicated time points. The lysates were then subjected to Western blot analysis as in FIG. 4A. […] SPS phosphorylation was detected using the anti pSPS Abs, and this was compared to the amount of genral ERKs detected by αgERK. […] SPS-phosphorylation was detected using αpSPS and αgERK Abs. […] The phosphorylation (^32P-ERK2) of ERK and its mutants was detected by autoradiography. […]
FIG. 9B is an autoradiograph illustrating that stimulation elevates pSPS phosphorylation of 2GFP-SPS construct. […] The total amount of immunoprecipitated 2GFP-SPS was detected with αGFP Ab. […]

B1: WT-Flag-SMAD3: full length FLAG-SMAD3 (protein)
chain: MSSILPFTPPIVKRLLGWKKGEQNGQEEKWCEKAVKSLVKKLKKTGQLDELEKAITTQNVNTKCITIPRSLDGRLQVSHRKGLPHVIYCRLWRWPDLHSHHELRAMELCEFAFNMKKDEVCVNPYHYQRVETPVLPPVLVPRHTEIPAEFPPLDDYSHSIPENTNFPAGIEPQSNIPETPPPGYLSEDGETSDHQMNHSMDAGSPNLSPNPMSPAHNNLDLQPVTYCEPAFWCSISYYELNQRVGETFHASQPSMTVDGFTDPSNSERFCLGLLSNVNRNAAVELTRRHIGRGVRLYYIGGEVFAECLSDSAIFVQSPNCNQRYGWHPATVCKIPPGCNLKIFNNQEFAALLAQSVNQGFEAVYQLTRMCTIRMSFVKGWGAEYRRQTVTSTPCWIELHLNGPLQWLDKVLTQMGSPSIRCSSVS
modifications: left off: small tags and cut ends
For B1, which subcellular localization (CHO cells) is on record?
The subcellular localization was “nuclear localization”.

What about the “SPS phosphorylation upon stimulation (anti pSPS Ab recognition)” value (SPS domain) of the same molecule?
Its value is “phosphorylated on its SPS domain”.
